B1: F010300468 (VHH)
VHH: EVQLVESGGGLVQPGGSLRLSCAASGSIFNINSMAWYRRAPGKQRELVASSTNGGSTNYADSVKGRFTISRDNAKRVYLQMNSLTPEDTAVYYCRALLQPSIYDISRTYWGQGTLVTVSS
notes: vs F0103275B05: N93R; also called F0103275B05(N93R)+FLAG3-HIS6; F103275B05(N93R)
B2: F010301657 (VHH)
VHH: EVQLVESGGGLVQPGGSLRLSCAASVRPFSTSAMGWFRQAPEKEREAVAGILWNGIVTYYADSVKGRFTISRDNAKNEVYLQMNKLKPEDTAVYYCALDRAYQGRSFSAKEYEYWGQGTLVTVSS
B3: F010301663 (VHH)
VHH: B2 VHH with Q103G
B4: F010301659 (VHH)
VHH: B2 VHH with G50A, Q103G, K110Y
B5: F010301661 (VHH)
VHH: B2 VHH with G50A, A101D, Q103G
B6: F010301658 (VHH)
VHH: B2 VHH with G50A
B7: F010300684 (VHH)
VHH: B1 VHH with S27P, I28V, I31W, N53P, T108I
B8: F010300477 (VHH)
VHH: B1 VHH with R95N, A96W
B9: F010300880 (VHH)
VHH: B1 VHH with S27P, I28V, S33R, N53P, S56D, A96W
B10: F010300990 (VHH)
VHH: B1 VHH with S27P, I28V, S33R, S50Y, N53P, R95N, T108I
B11: F010300631 (VHH)
VHH: B1 VHH with S27P, I28V, S50Y, N53P
B12: F010300948 (VHH)
VHH: B1 VHH with S27P, I28V, S33R, N53P, A96W, T108I
B13: F010300900 (VHH)
VHH: B1 VHH with S27P, I28V, S33R, N53P, S56D, A96W, T108I
B14: F010302383 (VHH)
VHH: EVQLVESGGGVVQPGGSLRLSCAASGPVFNINRMAWYRQAPGKQRELVAYVTPTGDISYADSVKGRFTISRGGSKRVYLQMNSLRPEDTALYYCRALLQPSSYSGTRTYWGQGTLVTVSS
B15: F010301643 (VHH)
VHH: EVQLVESGGGVVQPGGSLRLSCAASGRILRIGYMRWHRQGAGKQREFVARITDDSATDYADSVKGRFTISRDNAKNTVYLQMNSLRPEDTALYYCEALVTASVRGGSIHSGTYWGQGTLVTVSS
notes: also called F0103387G05(L11V, A14P, D23A, N82bS, N83R, V89L, R105Q)
B16: F010301645 (VHH)
VHH: B15 VHH with A23D, G40A
notes: also called F0103387G05(L11V, A14P, G40A, N82bS, N83R, V89L, R105Q)
B17: F010301649 (VHH)
VHH: B15 VHH with A23D
notes: also called F0103387G05(L11V, A14P, N82bS, N83R, V89L, R105Q)
B18: F010301646 (VHH)
VHH: B15 VHH with A23D, A41P
notes: also called F0103387G05(L11V, A14P, A41P, N82bS, N83R, V89L, R105Q)
B19: F010301644 (VHH)
VHH: B15 VHH with A23D, H37Y
notes: also called F0103387G05(L11V, A14P, H37Y, N82bS, N83R, V89L, R105Q)
B20: F010301462 (VHH)
VHH: B1 VHH with S27P, I28V, S33R, S50Y, N53P, S56D
notes: vs F0103275B05: S27P, I28V, S33R, S50Y, N53P, S56D, N93R
B21: F010301000 (VHH)
VHH: B1 VHH with S27P, I28V, S33R, S50Y, N53P, S56D, R95N, T108I
notes: vs F0103275B05: S27P, I28V, S33R, S50Y, N53P, S56D, T101I
B22: F010301461 (VHH)
VHH: B1 VHH with S33R, S50Y, S56D
notes: also called F0103275B05(S33R, S50Y, S56D, N93R)
B23: F010301460 (VHH)
VHH: B1 VHH with S27P, I28V, S33R, S50Y, N53P
notes: vs F0103275B05: S27P, I28V, S33R, S50Y, N53P, N93R
B24: F010301459 (VHH)
VHH: B1 VHH with S27P, I28V, S33R, N53P, S56D
notes: vs F0103275B05: S27P, I28V, S33R, N53P, S56D, N93R
B25: F010300796 (VHH)
VHH: B1 VHH with S27P, I28V, S33R, S50Y, N53P, S56D, R95N
notes: vs F0103275B05: S27P, I28V, S33R, S50Y, N53P, S56D
B26: F010301639 (VHH)
VHH: EVQLVESGGGVVQPGGSLRLSCAASGSIFNINSMAWYRQAPGKQRELVASSTNGGSTNYADSVKGRFTISRDNAKRTVYLQMNSLRPEDTALYYCNALLQPSIYDISRTYWGQGTLVTVSS
notes: also called F0103275B05(R76_V78insT)(L11V, R39Q, T83R, V89L)
B27: F010301640 (VHH)
VHH: B26 VHH with Q39R
notes: also called F0103275B05(R76_V78insT)(L11V, T83R, V89L)

Substitutions are numbered along the chain they refer to. Names may count otherwise.

The first test concerns the target rhNav1.7α (rhesus monkey, UniProt Q15858 1-1988 (human entry)). The experiment in a line: cell-based or functional assay.
Consider B1, for which the “2-pulse IC50 [M], P1” value stood at 6e-06 M and the “2-pulse IC50 [M], P2” value worked out at 3e-06 M.

The next test deals with T1, huNav1.7α (human, UniProt Q15858 1-1988). The experiment in a line: cell-based or functional assay.
For B1, the “2-pulse IC50 [M], P1” value is 5e-06 M and the “2-pulse IC50 [M], P2” value came to 4e-06 M.

Another test has as its target T2, huNav1.7α + β1 (HEKa/β1) (human, UniProt Q15858 1-1988; Q07699 19-218).
T2 construct: also called HEKa/β1 huNav1.7α
The experiment in a line: binding FACS, HEKa/β1 cells. An outline of the steps:
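Cells are first suspended in FACS buffer at 1×10^5 per well. Next, FLAG3-tagged ISVD is added for 30 minutes at 4° C, and binding is then detected with murine anti-Flag. Finally, samples go into 1 μg/mL propidium iodide before flow cytometry.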
Take B2: the EC50 was 16 nM.
The same measure, in the same setting: for B3 the value was 14 nM; for B4, 12 nM.
As to B5, the EC50 came to 18 nM.
Turning to B6, the EC50 turned out to be 20 nM.

For another test, the target named is T3, huNav1.7α (HEKa) (human, UniProt Q15858 1-1988).
T3 construct: also called HEKa huNav1.7α
Kind of test: binding FACS, HEKa cells. The procedure:
Binding of the ISVDs to cell-expressed Nav1.7α was detected via murine anti-Flag (Sigma, catalog #F1804). Briefly, cells were resuspended in FACS buffer (PBS, 10% FBS, NaN₃) and transferred to a 96-well V-bottom plate at 1×10^5 cells/well. Purified FLAG3-tagged ISVD was diluted in FACS buffer and added to the cells for 30 minutes at 4° C. […] Prior to the read-out, the samples were resuspended in 1 μg/mL propidium iodide (Sigma, catalog #P4170) to exclude dead cells. Between each step, the cells were centrifuged for 5 minutes at 200 grams and washed with 100 μL/well FACS buffer.
The molecule B2 returned an EC50 of 20 nM.
The molecule B3 yielded an EC50 of 13 nM.
In turn, B4 displayed an EC50 of 11 nM.
B5: it took 16 nM to reach a half-maximal effect (EC50).
B6 had an EC50 of 23 nM.

For a further test, the target named is huNav1.7α + β1 (human). Kind of test: cell-based or functional assay.
B7: the “Qpatch IC50” value was found to be 202 nM.
On to B8, for which the “Qpatch IC50” value was 96 nM.
With B9, the “Qpatch IC50” value came out at 27 nM.
B10: the “Qpatch IC50” value was 249 nM.
Regarding B11, the “Qpatch IC50” value is 73 nM.
B12: the “Qpatch IC50” value came out at 315 nM.
The same measure, in the same setting: the same measure for B13: 196 nM.
On the same count and under the same terms, for B14 the value was 22 nM.

Another test has as its target rhNav1.7α + β1-β2-β3 (rhesus monkey). The experiment in a line: cell-based or functional assay.
B7: the “Qpatch IC50” value was 212 nM.
Turning to B8, the “Qpatch IC50” value was determined as 1190 nM.
For the molecule B9, the “Qpatch IC50” value is 122 nM.
The same measure, in the same setting: for B10 the value was 101 nM; for B11, 173 nM.
In the case of B12, the “Qpatch IC50” value amounted to 58 nM.
Consider B13, for which the “Qpatch IC50” value amounted to 36 nM.
For the molecule B14, the “Qpatch IC50” value was found to be 3 nM.

The target in a further test is T4, huNav1.7α + β1 (human Nav1.7α co-expressed with Navβ1) (human, UniProt Q15858 1-1988; Q07699 19-218).
T4 construct: also called HEK293 human Nav1.7α + β1; HEKa/β1 Nav1.7α
The experiment in a line: binding FACS, HEKa/β1 cells.
As to B15, the EC50 turned out to be 3.4 nM.
B16: the EC50 was 4.2 nM.
For B17, the EC50 was 4.1 nM.
Regarding B18, the EC50 was determined as 4.1 nM.
As to B19, the EC50 was 5 nM.

The next test concerns the target T5, rhNav1.7α+β1-β2-β3 (rhesus monkey α subunit with human β …).
T5 construct: P2A cleaves it into α, β1, β2, β3; also called rhNav1.7-beta1-beta2-beta3
The experiment in a line: binding FACS, CHO FlpIn cells.
Turning to B1, the EC50 was determined as 40 nM.
Regarding B20, it took 23 nM to reach a half-maximal effect (EC50).
As for B21, the response was half-maximal at 40 nM (EC50).
Turning to B22, the midpoint of the response, the EC50, lay at 24 nM.
Consider B23, for which the EC50 worked out at 32 nM.
In turn, B24 had an EC50 of 23 nM.
In turn, B25 gave an EC50 of 44 nM.

Another test concerns the target T6, huNav157 chimera 14 (human).
T6 construct: Chimera without β subunits; also called Nav157ch14
The experiment in a line: binding FACS, HEK FlpIn cells.
As for B15, the Bmax came to 100% and the EC50 is 3.7 nM.
B16 had a Bmax of 100% and an EC50 of 3.9 nM.
The molecule B17 displayed a Bmax of 100% and an EC50 of 3.4 nM.
Consider B18, for which the Bmax was found to be 100% and a half-maximal response (EC50) required 3.1 nM.
As to B19, the Bmax stood at 100% and the EC50 was 4.4 nM.

The next test has as its target T7, huNav157 chimera 14 + β1-β2-β3 (human).
T7 construct: Chimera of huNav1.7α (extracellular loops and transmembrane helices) and huNav1.5α (intracellular loops); also called Nav157ch14-β1-β2-β3; huNav157 chimera 14-beta1-beta2-beta3
The experiment in a line: binding FACS, HEK FlpIn cells.
With B15, the EC50 was found to be 3.6 nM.
On the same count and under the same terms, the same measure for B16: 4.6 nM.
As for B17, the EC50 was 4.2 nM.
Still for that read-out and setting: the same measure for B18: 4.2 nM.
Turning to B19, the concentration giving a half-maximal response (EC50) was found to be 4.9 nM.

The next test concerns the target T1, huNav1.7α. Kind of test: binding FACS, HEKa cells.
Molecule B20 had an EC50 of 35 nM.
Turning to B21, the EC50 was 8.5 nM.
With B22, the EC50 came out at 28 nM.
As to B23, the EC50 stood at 15 nM.
On to B24, for which the EC50 is 22 nM.
Molecule B25 had an EC50 of 5.8 nM.

In another test the target is T8, huNav1.7α (human Nav1.7 alpha subunit, expressed without β subunits) (human, UniProt Q15858 1-1988).
T8 construct: also called HEK293 human Nav1.7α; HEKa Nav1.7α
The experiment in a line: binding FACS, HEKa cells.
The molecule B15 had a Bmax of 100% and an EC50 of 4.1 nM.
For B16, the Bmax was 100% and the EC50 stood at 4.7 nM.
The molecule B17 gave a Bmax of 100% and an EC50 of 5.3 nM.
In turn, B18 came in with a Bmax of 100% and an EC50 of 4.4 nM.
In the case of B19, the Bmax was 100% and the midpoint of the response, the EC50, lay at 5.7 nM.

The target of the next test is huNav1.7α + β1 on HEK cells (human, UniProt Q15858 1-1988; Q07699 19-218). Kind of test: binding FACS, HEK cells (HEKa/b1).
Take B26: the EC50 came out at 94 nM.
The same measure, in the same setting: for B27 the value was 65 nM.

The target in a further test is T9, huNav1.7α+β1 (human, UniProt Q15858 1-1988; Q07699 19-218).
T9 construct: also called huNav1.7-beta1; HEKa/β1
Kind of test: binding FACS, HEKa/β1 cells.
B20 gave an EC50 of 22 nM.
Regarding B21, the EC50 came out at 60 nM.
B22 returned an EC50 of 21 nM.
Molecule B23 displayed an EC50 of 26 nM.
Turning to B24, a half-maximal response (EC50) required 18 nM.
The molecule B25 yielded an EC50 of 38 nM.

Usually EC50 stands for the concentration that produces a half-maximal response.

The record behind these values is patent publication US20240002497A1 (Merck Sharp & Dohme, published 2024).
